Changes are numbered by the printed parent chain.
What was measured:
[1] = molecular target: SARS-CoV-2 nucleocapsid protein (SARS-CoV-2, UniProt P0DTC9 P0DTC9:1-419); experiment: SPR; details: tags: AcroBiosystems C5227 / RayBiotech 230-01104
ACE2/ACEH = ACE2/ACEH (Homo sapiens, UniProt Q9BYF1 Q9BYF1:18-740); experiment: SPR; details: tags: Fc-tag, ACRO Biosystems AC2-H5257; chain copies: 2
[2] = molecular target: SARS-CoV-2 full-length S protein on lentiviral VLP (SARS-CoV-2, UniProt P0DTC2 P0DTC2:14-1273); experiment: cell_activity; details: protein: virion, tags: GenTarget VLP001, GFP reporter VLP, chain copies: 3 (inferred)

TAGGGAAGAGAAGGACAATGATTTTGGGCGGGTTGA (ssDNA) [AYA2012004_L-M1]
binding result [1]: no binding | binding result (ACE2/ACEH): no binding | activity [2]: ~50 % inhibition

B1: AYA2012004_L-M2 (structured_DNA)
DNA 1: TTTTTTAGGGAAGAGAAGGACAATGATTTTGGGCGGGTTGA
DNA 2: B1 DNA 1 with T1A, T2A, T3A, T4A, T5A
binding result [1]: no binding | binding result (ACE2/ACEH): no binding | activity [2]: ~60 % inhibition

B2: SB3L (AYA2012004_L) (ssDNA)
DNA: TAGGGAAGAGAAGGACAATGATTTTGGGCGGGTTGAGGTGGGGGAGGAGGAGGTAGTTAGAGTTGACTAGTACATGACCACTTGA
binding result [1]: no binding | binding result (ACE2/ACEH): no binding | activity ([2]; label: 5'-biotin, two hairpins (predicted)): ~70 % inhibition
